Reference: PMC5624926

Legend:
CD22_(20–687)F (human) [1] = target: CD22_(20–687)F (human) (UniProt P20273); experiment: BLI; Octet RED96; CD22_(20–687) forms loaded on Ni-NTA biosensors; Fab in solution 500 to 62.5 nM; 1x PBS pH 7.4, 0.002% Tween, 0.01% BSA; 1:1 fit; triplicate
dCD22_(20–687) (human) [2] = target: dCD22_(20–687) (human) (UniProt P20273); experiment: as above
CD22_(20–687)F (human) [3] = target: CD22_(20–687)F (human) (UniProt P20273); experiment: ITC; Auto-ITC200; 5 μM CD22 in the cell, 50 μM Fab in the syringe; 35 °C; triplicate
dCD22_(20–687) (human) [4] = target: dCD22_(20–687) (human) (UniProt P20273); experiment: as above

Kd (CD22_(20–687)F (human) [1]): 0.327 µM
Kd (dCD22_(20–687) (human) [2]): 0.024 µM
Kd (CD22_(20–687)F (human) [3]): 0.188 µM
Kd (dCD22_(20–687) (human) [4]): 0.058 µM
B1: epratuzumab Fab (Fab, V domains shown)
VH: QVQLVQSGAEVKKPGSSVKVSCKASGYTFTSYWLHWVRQAPGQGLEWIGYINPRNDYTEYNQNFKDKATITADESTNTAYMELSSLRSEDTAFYFCARRDITTFYWGQGTTVTVSS
VL: DIQLTQSPSSLSASVGDRVTMSCKSSQSVLYSANHKNYLAWYQQKPGKAPKLLIYWASTRESGVPSRFSGSGSGTDFTLTISSLQPEDIATYYCHQYLSSWTFGGGTKLEIK
